From patent US20050250692A1

Legend:
[1] = target: insulin receptor of Mv1Lu cells (mink); experiment: cell-based or functional assay
[2] = target: LRP-1 in mouse embryonic fibroblasts (MEF cells) (mouse) (UniProt Q91ZX7); experiment: co-immunoprecipitation with anti-annexin VI IgG from lysates of MEF cells carrying cell surface-bound 125I-α2M* (1 nM, pH 7.4)
[3] = target: acidic pH binding sites of MEF cells; experiment: competition with 125I-α2M* binding to MEF cells at pH 5.5
[4] = target: TβR-V/LRP-1 in mink lung epithelial cells (Mv1Lu cells) (mink); experiment: inhibition of 10 nM 125I-IGFBP-3 affinity labeling (binding and DSS cross-linking) of TβR-V on Mv1Lu cells
[5] = target: acidic pH binding sites of Mv1Lu cells; experiment: inhibition of 125I-α2M* binding to Mv1Lu cells at pH 5 or 6
[6] = target: acidic pH binding sites of Mv1Lu cells; experiment: inhibition of 125I-α2M* binding to Mv1Lu cells at pH 6
[7] = target: IGF-I receptor of Mv1Lu cells (mink); experiment: cell-based or functional assay

LRP-1 in mouse embryonic fibroblasts (MEF cells) (mouse), sequence (Q91ZX7 20-4545): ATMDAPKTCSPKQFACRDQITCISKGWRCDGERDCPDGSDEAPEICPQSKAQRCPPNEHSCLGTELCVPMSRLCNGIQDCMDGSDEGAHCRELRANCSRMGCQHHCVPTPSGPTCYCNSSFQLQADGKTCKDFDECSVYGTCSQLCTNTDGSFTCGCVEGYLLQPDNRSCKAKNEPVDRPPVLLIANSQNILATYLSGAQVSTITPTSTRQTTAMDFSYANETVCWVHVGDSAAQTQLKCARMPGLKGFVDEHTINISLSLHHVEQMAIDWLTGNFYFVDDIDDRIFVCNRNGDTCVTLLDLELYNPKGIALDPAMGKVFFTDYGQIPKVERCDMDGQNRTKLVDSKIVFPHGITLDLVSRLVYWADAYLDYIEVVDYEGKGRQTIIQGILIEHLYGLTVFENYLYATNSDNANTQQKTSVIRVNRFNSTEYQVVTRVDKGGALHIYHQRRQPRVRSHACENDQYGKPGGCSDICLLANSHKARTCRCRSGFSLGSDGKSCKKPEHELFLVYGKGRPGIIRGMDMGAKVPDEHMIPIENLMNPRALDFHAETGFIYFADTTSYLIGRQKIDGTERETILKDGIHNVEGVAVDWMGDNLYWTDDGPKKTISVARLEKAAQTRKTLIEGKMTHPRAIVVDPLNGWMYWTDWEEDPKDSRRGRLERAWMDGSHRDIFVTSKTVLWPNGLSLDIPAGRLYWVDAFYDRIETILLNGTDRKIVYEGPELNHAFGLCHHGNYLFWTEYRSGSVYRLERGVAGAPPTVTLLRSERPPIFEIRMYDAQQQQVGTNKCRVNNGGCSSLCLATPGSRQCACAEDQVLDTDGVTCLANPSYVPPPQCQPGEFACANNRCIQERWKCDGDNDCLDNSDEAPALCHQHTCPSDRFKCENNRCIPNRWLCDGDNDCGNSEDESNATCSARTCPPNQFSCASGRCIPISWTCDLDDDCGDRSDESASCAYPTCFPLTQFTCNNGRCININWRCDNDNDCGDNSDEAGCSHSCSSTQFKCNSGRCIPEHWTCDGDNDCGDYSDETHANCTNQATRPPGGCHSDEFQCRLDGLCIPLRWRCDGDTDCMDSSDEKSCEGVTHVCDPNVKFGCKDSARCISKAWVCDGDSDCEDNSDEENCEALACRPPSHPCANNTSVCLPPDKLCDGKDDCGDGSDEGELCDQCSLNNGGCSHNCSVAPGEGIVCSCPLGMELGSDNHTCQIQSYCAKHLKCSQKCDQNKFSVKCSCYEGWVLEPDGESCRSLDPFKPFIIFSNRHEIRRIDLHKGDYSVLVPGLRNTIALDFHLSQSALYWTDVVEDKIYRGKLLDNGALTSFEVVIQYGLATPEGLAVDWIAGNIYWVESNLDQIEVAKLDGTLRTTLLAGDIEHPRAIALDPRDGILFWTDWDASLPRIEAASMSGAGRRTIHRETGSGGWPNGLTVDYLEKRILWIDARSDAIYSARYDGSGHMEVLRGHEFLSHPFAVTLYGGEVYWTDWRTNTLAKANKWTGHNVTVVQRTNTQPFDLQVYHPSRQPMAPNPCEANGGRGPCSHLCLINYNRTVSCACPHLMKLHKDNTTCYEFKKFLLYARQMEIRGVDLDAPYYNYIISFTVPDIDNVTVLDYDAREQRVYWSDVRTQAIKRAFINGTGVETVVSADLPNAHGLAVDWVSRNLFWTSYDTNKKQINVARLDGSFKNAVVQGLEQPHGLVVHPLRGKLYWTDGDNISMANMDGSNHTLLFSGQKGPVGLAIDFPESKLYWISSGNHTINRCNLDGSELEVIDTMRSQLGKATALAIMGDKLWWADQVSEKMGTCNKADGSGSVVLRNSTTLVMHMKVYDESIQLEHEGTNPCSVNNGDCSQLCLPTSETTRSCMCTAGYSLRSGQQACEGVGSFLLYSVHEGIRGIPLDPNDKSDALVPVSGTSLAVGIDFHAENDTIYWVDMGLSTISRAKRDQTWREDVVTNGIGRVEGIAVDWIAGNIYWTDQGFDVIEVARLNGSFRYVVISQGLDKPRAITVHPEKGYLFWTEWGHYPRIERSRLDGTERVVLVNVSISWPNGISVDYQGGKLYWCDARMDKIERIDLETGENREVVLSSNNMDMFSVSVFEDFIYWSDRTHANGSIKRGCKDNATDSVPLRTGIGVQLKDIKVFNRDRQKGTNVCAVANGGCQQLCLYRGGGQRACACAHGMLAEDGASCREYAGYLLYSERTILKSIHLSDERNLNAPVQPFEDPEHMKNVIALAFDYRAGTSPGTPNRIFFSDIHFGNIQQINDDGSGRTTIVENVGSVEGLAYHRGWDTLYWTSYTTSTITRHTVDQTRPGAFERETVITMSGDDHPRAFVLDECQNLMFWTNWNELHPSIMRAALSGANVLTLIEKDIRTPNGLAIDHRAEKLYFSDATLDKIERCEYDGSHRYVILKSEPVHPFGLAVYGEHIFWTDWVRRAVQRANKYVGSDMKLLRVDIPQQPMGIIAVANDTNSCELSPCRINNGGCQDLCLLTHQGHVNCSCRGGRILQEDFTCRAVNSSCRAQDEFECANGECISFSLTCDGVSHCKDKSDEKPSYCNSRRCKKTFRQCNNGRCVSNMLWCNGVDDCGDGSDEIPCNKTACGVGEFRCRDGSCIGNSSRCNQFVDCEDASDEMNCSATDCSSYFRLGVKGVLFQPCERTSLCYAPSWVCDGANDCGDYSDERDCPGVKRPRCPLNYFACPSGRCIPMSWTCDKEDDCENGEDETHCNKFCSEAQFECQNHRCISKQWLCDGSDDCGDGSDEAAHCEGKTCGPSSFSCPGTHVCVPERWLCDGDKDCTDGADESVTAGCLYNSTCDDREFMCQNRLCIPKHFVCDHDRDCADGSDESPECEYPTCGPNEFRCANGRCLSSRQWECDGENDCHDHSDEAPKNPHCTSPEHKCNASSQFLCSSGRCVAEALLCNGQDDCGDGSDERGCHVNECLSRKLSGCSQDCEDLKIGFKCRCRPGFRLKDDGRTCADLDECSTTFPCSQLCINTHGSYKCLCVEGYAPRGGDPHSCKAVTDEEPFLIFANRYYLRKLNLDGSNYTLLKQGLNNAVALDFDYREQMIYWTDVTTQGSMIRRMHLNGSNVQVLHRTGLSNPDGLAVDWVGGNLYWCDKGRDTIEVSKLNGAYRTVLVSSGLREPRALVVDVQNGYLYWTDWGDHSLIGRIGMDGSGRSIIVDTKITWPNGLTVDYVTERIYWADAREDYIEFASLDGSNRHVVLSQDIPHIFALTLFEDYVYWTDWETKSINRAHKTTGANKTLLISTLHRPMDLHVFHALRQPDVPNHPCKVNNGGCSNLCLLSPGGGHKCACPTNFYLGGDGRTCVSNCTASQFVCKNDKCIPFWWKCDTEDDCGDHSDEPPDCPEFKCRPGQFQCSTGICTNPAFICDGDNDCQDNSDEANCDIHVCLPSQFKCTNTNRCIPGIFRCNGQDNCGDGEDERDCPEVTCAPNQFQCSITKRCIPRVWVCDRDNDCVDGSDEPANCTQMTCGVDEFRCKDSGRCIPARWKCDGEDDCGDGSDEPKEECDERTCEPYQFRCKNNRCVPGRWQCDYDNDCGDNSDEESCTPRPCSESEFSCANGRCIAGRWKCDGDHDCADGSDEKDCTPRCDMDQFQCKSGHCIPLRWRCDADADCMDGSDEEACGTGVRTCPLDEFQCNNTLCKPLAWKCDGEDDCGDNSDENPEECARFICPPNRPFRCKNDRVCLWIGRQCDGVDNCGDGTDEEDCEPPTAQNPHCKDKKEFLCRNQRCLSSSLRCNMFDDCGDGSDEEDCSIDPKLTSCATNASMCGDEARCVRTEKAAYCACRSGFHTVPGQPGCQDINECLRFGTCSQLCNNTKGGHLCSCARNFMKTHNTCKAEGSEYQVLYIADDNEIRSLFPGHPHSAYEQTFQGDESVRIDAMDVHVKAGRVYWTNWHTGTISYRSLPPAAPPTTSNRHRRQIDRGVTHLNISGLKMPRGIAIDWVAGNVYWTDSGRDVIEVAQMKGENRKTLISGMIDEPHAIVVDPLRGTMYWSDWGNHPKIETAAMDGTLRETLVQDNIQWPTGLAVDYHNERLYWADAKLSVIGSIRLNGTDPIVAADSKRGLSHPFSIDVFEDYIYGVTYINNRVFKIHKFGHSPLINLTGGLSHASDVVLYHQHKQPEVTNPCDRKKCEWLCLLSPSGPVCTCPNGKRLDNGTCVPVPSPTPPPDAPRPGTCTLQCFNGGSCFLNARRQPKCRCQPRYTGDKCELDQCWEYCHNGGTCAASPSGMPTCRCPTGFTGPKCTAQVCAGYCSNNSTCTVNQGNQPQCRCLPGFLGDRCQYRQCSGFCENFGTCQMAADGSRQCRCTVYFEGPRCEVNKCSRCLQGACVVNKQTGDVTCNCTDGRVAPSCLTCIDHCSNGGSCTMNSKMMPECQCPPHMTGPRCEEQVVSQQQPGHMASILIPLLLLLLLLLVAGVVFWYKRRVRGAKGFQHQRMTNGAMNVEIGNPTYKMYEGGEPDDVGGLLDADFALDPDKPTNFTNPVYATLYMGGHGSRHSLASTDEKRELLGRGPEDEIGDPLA

Substance: insulin (ligand)
- ED50 for blocking IGFBP-3-induced inhibition of DNA synthesis in Mv1Lu cells [1]: 1 nM

Substance: cell surface annexin VI of mouse embryonic fibroblasts (MEF and PEA-13 cells) (from UniProt P14824 2-673) (receptor)
- percent of LRP-1-bound 125I-α2M* co-immunoprecipitated by anti-annexin VI IgG [2]: 40%

Substance: native α2M (human) (from UniProt P01023 24-1474) (ligand)
- IC50 [3]: 150 nM

Substance: human receptor-associated protein (RAP) (from UniProt P30533 35-357) (ligand)
- IC50 [4]: 5 µg/mL

Substance: bovine lactoferrin (from UniProt P24627 20-708) (ligand)
- IC50 [5]: 50 nM

Substance: human low density lipoprotein (LDL) (from UniProt P04114 28-4563)
- IC50 [6]: 5 µg/mL

Substance: (Q^3A^4Y^15L^16) IGF-I (from UniProt P05019 49-118) (ligand)
- ED50 for blocking IGFBP-3-induced growth inhibition in Mv1Lu cells [7]: 0.3 nM

Substance: human transferrin (from UniProt P02787 20-698) (ligand)
- IC50 [5]: 500 nM
